Reference: paper PMC5448812, “Distinct DNA-binding surfaces in the ATPase and linker domains of MutLγ determine its substrate specificities and exert separable functions in meiotic recombination and mismatch repair”

Legend:
HisFlag-Mlh1;Mlh3 [1] = biological target: T1, HisFlag-Mlh1;Mlh3 (Saccharomyces cerevisiae (S288c strain …, UniProt P38920;Q12083 1-769;1-715, |)); assay: EMSA; Hill slope 2.9 +/- 0.27; 5 mM EDTA; EMSA: 25 mM Tris-HCl pH 7.5, 15% glycerol, 100 mM NaCl, 2 mM DTT, 5 mM EDTA, 1 mg/ml BSA, 30 min 30 C, 1 nM DNA; pull-down: similar, 10% glycerol, 0.2 mg/ml BSA, 0.1% Triton X-100, 4 C; details: protein: recombinant;recombinant; tags: N-terminal 6xHis-2xFlag;none; copies: 1;1; label: 5'-32P when used as probe
T1 sequence 1: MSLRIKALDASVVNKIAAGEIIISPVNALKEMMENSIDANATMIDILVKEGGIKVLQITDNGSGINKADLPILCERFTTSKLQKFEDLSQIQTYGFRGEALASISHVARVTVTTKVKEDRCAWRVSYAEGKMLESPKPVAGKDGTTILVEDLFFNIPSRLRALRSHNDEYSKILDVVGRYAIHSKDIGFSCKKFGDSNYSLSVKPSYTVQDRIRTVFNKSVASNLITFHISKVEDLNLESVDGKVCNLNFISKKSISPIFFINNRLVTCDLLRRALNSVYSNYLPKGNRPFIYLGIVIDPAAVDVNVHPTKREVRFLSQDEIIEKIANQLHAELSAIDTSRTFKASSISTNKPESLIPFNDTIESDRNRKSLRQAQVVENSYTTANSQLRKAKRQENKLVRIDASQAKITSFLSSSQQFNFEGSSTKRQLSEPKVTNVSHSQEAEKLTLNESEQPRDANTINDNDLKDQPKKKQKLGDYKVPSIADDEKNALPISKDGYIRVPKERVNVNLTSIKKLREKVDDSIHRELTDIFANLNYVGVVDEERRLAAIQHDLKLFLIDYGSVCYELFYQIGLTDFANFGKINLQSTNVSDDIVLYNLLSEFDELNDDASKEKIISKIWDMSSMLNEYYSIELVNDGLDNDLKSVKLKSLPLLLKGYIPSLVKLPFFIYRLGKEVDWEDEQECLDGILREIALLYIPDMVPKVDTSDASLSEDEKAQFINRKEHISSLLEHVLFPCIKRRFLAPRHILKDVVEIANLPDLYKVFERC
T1 sequence 2: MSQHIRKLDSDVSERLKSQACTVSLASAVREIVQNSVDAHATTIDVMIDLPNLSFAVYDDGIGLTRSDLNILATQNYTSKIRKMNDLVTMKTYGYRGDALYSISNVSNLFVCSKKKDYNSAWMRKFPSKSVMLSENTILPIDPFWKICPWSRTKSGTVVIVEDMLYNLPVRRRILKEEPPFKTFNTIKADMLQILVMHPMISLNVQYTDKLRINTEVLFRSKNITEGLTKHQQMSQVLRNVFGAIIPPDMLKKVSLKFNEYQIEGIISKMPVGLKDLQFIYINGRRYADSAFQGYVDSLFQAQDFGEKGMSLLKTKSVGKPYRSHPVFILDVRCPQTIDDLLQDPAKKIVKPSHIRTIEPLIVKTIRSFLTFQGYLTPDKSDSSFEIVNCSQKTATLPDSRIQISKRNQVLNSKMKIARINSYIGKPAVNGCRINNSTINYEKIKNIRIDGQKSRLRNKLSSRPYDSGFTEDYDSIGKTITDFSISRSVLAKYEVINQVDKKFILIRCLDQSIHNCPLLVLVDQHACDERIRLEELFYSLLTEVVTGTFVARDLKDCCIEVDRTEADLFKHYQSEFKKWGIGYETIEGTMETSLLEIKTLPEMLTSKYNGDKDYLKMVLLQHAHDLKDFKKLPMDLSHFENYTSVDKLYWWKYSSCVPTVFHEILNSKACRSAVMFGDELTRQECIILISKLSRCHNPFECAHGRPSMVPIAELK

HisFlag-Mlh1;Mlh3 [2] = biological target: T1, HisFlag-Mlh1;Mlh3; assay: FeBABE footprinting; cleavage in Mlh1 N-terminal domain and linker; EMSA: 25 mM Tris-HCl pH 7.5, 15% glycerol, 100 mM NaCl, 2 mM DTT, 5 mM EDTA, 1 mg/ml BSA, 30 min 30 C, 1 nM DNA; pull-down: similar, 10% glycerol, 0.2 mg/ml BSA, 0.1% Triton X-100, 4 C; details: protein: recombinant;recombinant; tags: N-terminal 6xHis-2xFlag;none; copies: 1;1; label: 3'-biotin
[3] = biological target: T2, Mlh1 untagged;HisFlag-Mlh3 (Saccharomyces cerevisiae (S288c strain …, UniProt P38920;Q12083 1-769;1-715, |)); assay: FeBABE footprinting; cleavage in Mlh3 N-terminal domain and linker; EMSA: 25 mM Tris-HCl pH 7.5, 15% glycerol, 100 mM NaCl, 2 mM DTT, 5 mM EDTA, 1 mg/ml BSA, 30 min 30 C, 1 nM DNA; pull-down: similar, 10% glycerol, 0.2 mg/ml BSA, 0.1% Triton X-100, 4 C; details: protein: recombinant;recombinant; tags: none;N-terminal 6xHis-2xFlag; copies: 1;1; label: 3'-biotin
T2 sequence 1: T1 sequence 1
T2 sequence 2: T1 sequence 2

HisFlag-Mlh1;Mlh3 [4] = biological target: T1, HisFlag-Mlh1;Mlh3; assay: EMSA; Hill slope 2.0 +/- 0.05; 5 mM EDTA; EMSA: 25 mM Tris-HCl pH 7.5, 15% glycerol, 100 mM NaCl, 2 mM DTT, 5 mM EDTA, 1 mg/ml BSA, 30 min 30 C, 1 nM DNA; pull-down: similar, 10% glycerol, 0.2 mg/ml BSA, 0.1% Triton X-100, 4 C; details: protein: recombinant;recombinant; tags: N-terminal 6xHis-2xFlag;none; copies: 1;1; label: 5'-32P when used as probe; four-way junction, 40 bp arms
HisFlag-Mlh1;Mlh3 [5] = biological target: T1, HisFlag-Mlh1;Mlh3; assay: FeBABE footprinting; mostly Mlh1 linker; EMSA: 25 mM Tris-HCl pH 7.5, 15% glycerol, 100 mM NaCl, 2 mM DTT, 5 mM EDTA, 1 mg/ml BSA, 30 min 30 C, 1 nM DNA; pull-down: similar, 10% glycerol, 0.2 mg/ml BSA, 0.1% Triton X-100, 4 C; details: protein: recombinant;recombinant; tags: N-terminal 6xHis-2xFlag;none; copies: 1;1; label: 3'-biotin on strand 1; four-way junction, 40 bp arms
[6] = biological target: T2, Mlh1 untagged;HisFlag-Mlh3; assay: FeBABE footprinting; Mlh3 linker enriched; EMSA: 25 mM Tris-HCl pH 7.5, 15% glycerol, 100 mM NaCl, 2 mM DTT, 5 mM EDTA, 1 mg/ml BSA, 30 min 30 C, 1 nM DNA; pull-down: similar, 10% glycerol, 0.2 mg/ml BSA, 0.1% Triton X-100, 4 C; details: protein: recombinant;recombinant; tags: none;N-terminal 6xHis-2xFlag; copies: 1;1; label: 3'-biotin on strand 1; four-way junction, 40 bp arms
HisFlag-Mlh1;Mlh3 [7] = biological target: T1, HisFlag-Mlh1;Mlh3; assay: competition; labeled poly-dT 80 nt; 500x excess in nt; EMSA: 25 mM Tris-HCl pH 7.5, 15% glycerol, 100 mM NaCl, 2 mM DTT, 5 mM EDTA, 1 mg/ml BSA, 30 min 30 C, 1 nM DNA; pull-down: similar, 10% glycerol, 0.2 mg/ml BSA, 0.1% Triton X-100, 4 C; details: protein: recombinant;recombinant; tags: N-terminal 6xHis-2xFlag;none; copies: 1;1

B1: ssDNA80 (cb099, poly-dT) (ssDNA)
DNA: TTTTTTTTTTTTTTTTTTTTTTTTTTTTTTTTTTTTTTTTTTTTTTTTTTTTTTTTTTTTTTTTTTTTTTTTTTTTTTTT
HisFlag-Mlh1;Mlh3 [1]
  Kd: 45.9 nM

B2: ssDNA+ (cb361) (ssDNA)
DNA: B1 DNA
modifications: phosphorothioates every 8 nt, FeBABE-conjugated
HisFlag-Mlh1;Mlh3 [2]
  binding result: binds
[3]
  binding result: binds

B3: HJ80 (cb095-098) (structured_DNA)
DNA 1: CTAGTATAGAGCCGGCGCGCCATGTCTAGATAGCGTTAGGTCTGCCGAATAGTACTACTCGGATCCCGAGCGAACCACGC
DNA 2: GCGTGGTTCGCTCGGGATCCGAGTAGTACTATTCGGCAGAGGATTCGAATAGGCCTAATCGAATTCCGCCATCGATGCAC
DNA 3: GTGCATCGATGGCGGAATTCGATTAGGCCTATTCGAATCCAGACGCGAGTAGATCTTCACGGTACCCGCGGTTACCCGTG
DNA 4: CACGGGTAACCGCGGGTACCGTGAAGATCTACTCGCGTCTCCTAACGCTATCTAGACATGGCGCGCCGGCTCTATACTAG
HisFlag-Mlh1;Mlh3 [4]
  Kd: 72.9 nM

B4: HJ+1 (cb256, 351, 369, 98) (structured_DNA)
DNA 1: B3 DNA 1
DNA 2: B3 DNA 2
DNA 3: B3 DNA 3
DNA 4: B3 DNA 4
modifications: phosphorothioates in strands 2 and 3 (segment 1), FeBABE-conjugated
HisFlag-Mlh1;Mlh3 [5]
  binding result: binds
[6]
  binding result: binds

## TTTTTTTTTT (ssDNA) [ssDNA 10 nt competitor (poly-dT?)]
HisFlag-Mlh1;Mlh3 [7]
  binding result: no binding
